The target in this series is T1, CviJ I restriction endonuclease (Chlorella virus IL-3A (infected Chlorella NC64A)) (UniProt P52283).
T1 sequence: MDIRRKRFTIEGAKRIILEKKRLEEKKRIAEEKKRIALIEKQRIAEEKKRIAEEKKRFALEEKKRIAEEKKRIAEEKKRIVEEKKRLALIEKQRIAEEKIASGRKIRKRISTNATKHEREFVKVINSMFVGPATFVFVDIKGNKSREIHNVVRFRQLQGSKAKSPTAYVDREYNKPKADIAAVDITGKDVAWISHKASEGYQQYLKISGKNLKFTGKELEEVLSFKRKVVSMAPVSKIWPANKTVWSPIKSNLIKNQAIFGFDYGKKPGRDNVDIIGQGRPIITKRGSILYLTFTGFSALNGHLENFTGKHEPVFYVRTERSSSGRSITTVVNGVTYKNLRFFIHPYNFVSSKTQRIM
As to the kind of experiment: cleavage_in_vitro. The conditions noted are these: for activity (% of cleaved junctions): CviJ I* complete digest; for activity (% of cloned junctions): CviJ I** partial digest.

Turning to AGCA (double strand) [AGCA site], the activity (% of cloned junctions) stood at 1.3. Also, the activity (% of cleaved junctions) (13 cleaved, 5 not cleaved) worked out at 6.5.
As to AGCC (double strand) [AGCC site], the activity (% of cleaved junctions) (23 cleaved, 1 not cleaved) worked out at 11.5. Further, the activity (% of cloned junctions) (Mg, ATP, DTT, 20% DMSO, low salt) amounted to 17.1.
AGCG (double strand) [AGCG site] yielded an activity (% of cloned junctions) of 0. This sequence registered an activity (% of cleaved junctions) (12 cleaved, 11 not cleaved) of 6.
With AGCT (double strand) [AGCT site], the activity (% of cloned junctions) was determined as 32.9. The sequence further gave an activity (% of cleaved junctions) (35 cleaved, 0 not cleaved) of 17.5.
For the sequence CGCA (double strand) [CGCA site], the activity (% of cloned junctions) was found to be 0. For the setting “12 not cleaved”, this sequence returned an activity (% of cleaved junctions) of 0.
The sequence CGCC (double strand) [CGCC site] had an activity (% of cloned junctions) of 0. The activity (% of cleaved junctions) (11 cleaved, 4 not cleaved) turned out to be 5.5.
For the sequence CGCG (double strand) [CGCG site], the activity (% of cloned junctions) worked out at 0. Also, the activity (% of cleaved junctions) (27 not cleaved) was determined as 0.
In the case of CGCT (double strand) [CGCT site], the activity (% of cloned junctions) was 2.6. For the same sequence, the activity (% of cleaved junctions) (17 cleaved, 7 not cleaved) came to 8.5.
As to GGCA (double strand) [GGCA site], the activity (% of cloned junctions) came out at 0. Also, the activity (% of cleaved junctions) (11 cleaved, 3 not cleaved) stood at 5.5.
Sequence GGCC (double strand) [GGCC site] showed an activity (% of cloned junctions) of 21.1. Besides, the activity (% of cleaved junctions) (24 cleaved, 1 not cleaved) is 12.
As to GGCG (double strand) [GGCG site], the activity (% of cloned junctions) is 5.2. Besides, the activity (% of cleaved junctions) (18 cleaved, 8 not cleaved) was found to be 9.
Take GGCT (double strand) [GGCT site]: the activity (% of cloned junctions) was found to be 15.8. The sequence further registered an activity (% of cleaved junctions) (13 cleaved, 0 not cleaved) of 6.5.
In turn, TGCA (double strand) [TGCA site] came in with an activity (% of cloned junctions) of 0. This sequence also returned an activity (% of cleaved junctions) (19 not cleaved) of 0.
Turning to TGCC (double strand) [TGCC site], the activity (% of cloned junctions) was 2.6. In addition, the activity (% of cleaved junctions) (13 cleaved, 10 not cleaved) amounted to 6.5.
Take TGCG (double strand) [TGCG site]: the activity (% of cloned junctions) is 0. Besides, the activity (% of cleaved junctions) (3 not cleaved) stood at 0.
Take TGCT (double strand) [TGCT site]: the activity (% of cloned junctions) came to 1.3. For the setting “10 cleaved, 5 not cleaved”, the activity (% of cleaved junctions) is 5.

Source of the values: US5604098.
